The text below walks through data of patent publication US20260055162A1.

Assay in all cases: cell-based or functional assay
In experiment [1] the target is AA-SR-105 (SR-105), Fas ECD-Fas TM-CD3z ICD.
Experiment [2] has as its target AA-SR-120 (SR-120), Fas ECD-CD28 TM-CD3z ICD.
In experiment [3] the target is AA-SR-115 (SR-115), BTLA ECD-CD28 TM-CD3z ICD.
The target in experiment [4] is AA-SR-100 (SR-100), BTLA ECD-BTLA TM-CD3z ICD.
The target of experiment [5] is AA-SR-127 (SR-127), TACTILE ECD-CD28 TM-CD3z ICD.
Experiment [6] concerns the target AA-SR-112 (SR-112), TACTILE ECD-TACTILE TM-CD3z ICD.
Experiment [7] deals with AA-SR-117 (SR-117), CD200R ECD-CD28 TM-CD3z ICD.
Experiment [8] concerns the target AA-SR-102 (SR-102), CD200R ECD-CD200R TM-CD3z ICD.
Experiment [9] has as its target AA-SR-119 (SR-119), CTLA4 ECD-CD28 TM-CD3z ICD.
The target of experiment [10] is AA-SR-104 (SR-104), CTLA4 ECD-CTLA4 TM-CD3z ICD.
Sequence of AA-SR-104 (SR-104), CTLA4 ECD-CTLA4 TM-CD3z ICD (chain, as listed by the source limits assumed, form in doubt): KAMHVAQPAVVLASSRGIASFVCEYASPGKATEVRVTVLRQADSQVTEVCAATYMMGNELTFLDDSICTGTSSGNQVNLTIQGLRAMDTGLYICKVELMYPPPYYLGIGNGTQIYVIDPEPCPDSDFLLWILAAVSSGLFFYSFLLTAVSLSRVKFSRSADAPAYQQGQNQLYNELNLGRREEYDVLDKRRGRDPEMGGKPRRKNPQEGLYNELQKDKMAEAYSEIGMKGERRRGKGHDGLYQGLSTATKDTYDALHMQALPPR

Sequence of AA-SR-112 (SR-112), TACTILE ECD-TACTILE TM-CD3z ICD (chain, as listed by the source limits assumed, form in doubt): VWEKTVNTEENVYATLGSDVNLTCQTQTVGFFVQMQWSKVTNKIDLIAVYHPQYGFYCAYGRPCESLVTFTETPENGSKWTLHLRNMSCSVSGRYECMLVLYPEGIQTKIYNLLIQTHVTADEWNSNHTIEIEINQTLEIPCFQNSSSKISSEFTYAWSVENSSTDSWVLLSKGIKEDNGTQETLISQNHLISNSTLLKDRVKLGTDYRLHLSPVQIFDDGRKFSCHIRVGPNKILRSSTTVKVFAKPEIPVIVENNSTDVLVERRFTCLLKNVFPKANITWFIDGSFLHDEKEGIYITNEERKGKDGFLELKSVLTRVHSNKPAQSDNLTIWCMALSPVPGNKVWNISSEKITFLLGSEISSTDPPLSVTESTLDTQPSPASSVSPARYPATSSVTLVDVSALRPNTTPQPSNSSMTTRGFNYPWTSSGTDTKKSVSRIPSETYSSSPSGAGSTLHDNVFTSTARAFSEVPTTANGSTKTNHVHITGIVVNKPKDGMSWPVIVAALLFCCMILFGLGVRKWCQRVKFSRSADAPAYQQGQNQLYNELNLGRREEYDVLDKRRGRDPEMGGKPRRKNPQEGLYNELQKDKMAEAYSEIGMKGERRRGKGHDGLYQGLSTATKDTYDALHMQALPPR
Sequence of FasL recombinant protein (P48023 134-281 limits assumed): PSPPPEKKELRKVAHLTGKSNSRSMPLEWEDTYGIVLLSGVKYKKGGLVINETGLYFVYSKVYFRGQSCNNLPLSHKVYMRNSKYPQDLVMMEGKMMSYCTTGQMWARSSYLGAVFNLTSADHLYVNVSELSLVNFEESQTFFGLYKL
Sequence of AA-SR-117 (SR-117), CD200R ECD-CD28 TM-CD3z ICD (chain, as listed by the source limits assumed, form in doubt): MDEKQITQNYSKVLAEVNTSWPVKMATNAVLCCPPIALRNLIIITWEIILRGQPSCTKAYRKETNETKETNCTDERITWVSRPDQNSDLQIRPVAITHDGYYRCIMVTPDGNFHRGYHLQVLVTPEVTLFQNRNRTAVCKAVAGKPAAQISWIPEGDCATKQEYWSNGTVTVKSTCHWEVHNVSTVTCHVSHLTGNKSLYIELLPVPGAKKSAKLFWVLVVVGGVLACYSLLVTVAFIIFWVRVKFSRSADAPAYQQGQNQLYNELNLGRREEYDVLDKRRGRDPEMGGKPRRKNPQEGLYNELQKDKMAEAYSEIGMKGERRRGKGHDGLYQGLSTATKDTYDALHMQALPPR
Sequence of AA-SR-115 (SR-115), BTLA ECD-CD28 TM-CD3z ICD (chain, as listed by the source limits assumed, form in doubt): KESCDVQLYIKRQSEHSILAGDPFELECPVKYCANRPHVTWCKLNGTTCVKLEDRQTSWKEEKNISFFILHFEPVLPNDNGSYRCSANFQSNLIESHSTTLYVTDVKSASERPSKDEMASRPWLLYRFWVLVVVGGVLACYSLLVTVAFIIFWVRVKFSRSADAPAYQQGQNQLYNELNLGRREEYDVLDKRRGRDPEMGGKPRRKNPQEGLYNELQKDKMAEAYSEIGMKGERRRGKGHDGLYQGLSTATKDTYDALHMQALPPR
Sequence of AA-SR-100 (SR-100), BTLA ECD-BTLA TM-CD3z ICD (chain, as listed by the source limits assumed, form in doubt): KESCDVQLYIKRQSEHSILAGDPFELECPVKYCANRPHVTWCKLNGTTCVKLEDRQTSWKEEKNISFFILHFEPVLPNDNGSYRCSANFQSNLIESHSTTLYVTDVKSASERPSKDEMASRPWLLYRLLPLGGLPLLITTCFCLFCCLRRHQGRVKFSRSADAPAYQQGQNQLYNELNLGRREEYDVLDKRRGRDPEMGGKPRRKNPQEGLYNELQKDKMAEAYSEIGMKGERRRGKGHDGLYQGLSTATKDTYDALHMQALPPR
Sequence of AA-SR-120 (SR-120), Fas ECD-CD28 TM-CD3z ICD (chain, as listed by the source limits assumed, form in doubt): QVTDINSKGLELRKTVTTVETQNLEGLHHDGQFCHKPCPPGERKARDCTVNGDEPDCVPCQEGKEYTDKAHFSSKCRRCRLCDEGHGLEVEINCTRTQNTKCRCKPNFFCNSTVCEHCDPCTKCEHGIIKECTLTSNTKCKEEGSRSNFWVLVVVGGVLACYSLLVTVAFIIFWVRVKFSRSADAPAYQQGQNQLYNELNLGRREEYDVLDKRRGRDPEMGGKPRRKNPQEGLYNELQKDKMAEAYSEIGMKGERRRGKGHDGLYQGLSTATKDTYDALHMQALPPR
Sequence of AA-SR-105 (SR-105), Fas ECD-Fas TM-CD3z ICD (chain, as listed by the source limits assumed, form in doubt): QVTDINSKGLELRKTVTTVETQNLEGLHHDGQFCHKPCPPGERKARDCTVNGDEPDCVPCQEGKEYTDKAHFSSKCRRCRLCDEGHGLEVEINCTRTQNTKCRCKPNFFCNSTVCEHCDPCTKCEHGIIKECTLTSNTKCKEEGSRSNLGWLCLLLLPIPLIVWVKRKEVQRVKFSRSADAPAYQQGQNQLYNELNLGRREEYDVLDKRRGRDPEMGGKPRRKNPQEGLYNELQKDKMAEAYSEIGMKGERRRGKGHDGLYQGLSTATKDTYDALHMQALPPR
Sequence of AA-SR-119 (SR-119), CTLA4 ECD-CD28 TM-CD3z ICD (chain, as listed by the source limits assumed, form in doubt): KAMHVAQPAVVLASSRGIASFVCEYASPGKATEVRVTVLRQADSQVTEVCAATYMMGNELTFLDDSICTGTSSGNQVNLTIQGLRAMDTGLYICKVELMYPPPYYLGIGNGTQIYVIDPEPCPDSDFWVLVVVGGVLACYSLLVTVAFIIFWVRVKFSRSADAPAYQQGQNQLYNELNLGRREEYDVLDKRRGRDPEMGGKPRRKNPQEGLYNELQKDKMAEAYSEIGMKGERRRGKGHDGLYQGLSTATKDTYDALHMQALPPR
Sequence of AA-SR-102 (SR-102), CD200R ECD-CD200R TM-CD3z ICD (chain, as listed by the source limits assumed, form in doubt): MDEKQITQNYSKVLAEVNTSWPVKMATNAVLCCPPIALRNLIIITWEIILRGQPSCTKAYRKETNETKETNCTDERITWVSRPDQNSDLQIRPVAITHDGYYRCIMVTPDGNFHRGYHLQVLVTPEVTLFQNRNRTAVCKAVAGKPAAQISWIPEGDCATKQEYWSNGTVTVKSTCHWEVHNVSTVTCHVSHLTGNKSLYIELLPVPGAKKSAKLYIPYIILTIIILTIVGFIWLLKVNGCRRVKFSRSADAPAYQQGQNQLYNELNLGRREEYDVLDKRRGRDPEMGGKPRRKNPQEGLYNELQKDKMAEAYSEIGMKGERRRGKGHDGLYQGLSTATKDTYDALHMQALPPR
Sequence of AA-SR-127 (SR-127), TACTILE ECD-CD28 TM-CD3z ICD (chain, as listed by the source limits assumed, form in doubt): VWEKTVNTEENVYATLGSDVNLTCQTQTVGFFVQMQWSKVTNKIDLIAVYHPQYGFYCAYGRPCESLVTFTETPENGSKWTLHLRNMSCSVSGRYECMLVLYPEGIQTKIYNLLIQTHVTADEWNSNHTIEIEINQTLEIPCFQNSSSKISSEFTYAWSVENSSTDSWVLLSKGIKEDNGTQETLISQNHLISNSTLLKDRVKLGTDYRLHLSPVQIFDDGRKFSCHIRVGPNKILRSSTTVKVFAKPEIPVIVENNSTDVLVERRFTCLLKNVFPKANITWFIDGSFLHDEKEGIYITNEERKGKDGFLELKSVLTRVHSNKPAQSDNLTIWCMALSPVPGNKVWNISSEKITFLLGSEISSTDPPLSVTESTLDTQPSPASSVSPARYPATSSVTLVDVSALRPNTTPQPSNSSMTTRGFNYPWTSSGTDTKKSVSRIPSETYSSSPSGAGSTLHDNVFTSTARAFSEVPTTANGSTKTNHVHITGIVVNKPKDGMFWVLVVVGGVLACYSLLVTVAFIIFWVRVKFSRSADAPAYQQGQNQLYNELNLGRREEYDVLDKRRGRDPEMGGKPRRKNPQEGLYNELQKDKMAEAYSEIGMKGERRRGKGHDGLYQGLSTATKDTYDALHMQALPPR

For “FasL recombinant protein (from UniProt P48023 134-281) (ligand)”, in experiment [1], the CD69, fold-change of MFI over no stimulation, High (10 ug/mL) came to 70.2 fold; the CD69, fold-change of MFI over no stimulation, Low (0.4 ug/mL) was 8.4 fold; the CD69, fold-change of MFI over no stimulation, Med. (2 ug/mL) was 35.7 fold; the GFP, fold-change of MFI over no stimulation, High (10 ug/mL) stood at 7.3 fold. In experiment [1], the GFP, fold-change of MFI over no stimulation, Low (0.4 ug/mL) turned out to be 1 fold and the GFP, fold-change of MFI over no stimulation, Med. (2 ug/mL) was 4.6 fold. For the same substance, in experiment [2], the CD69, fold-change of MFI over no stimulation, High (10 ug/mL) was found to be 162 fold; the CD69, fold-change of MFI over no stimulation, Low (0.4 ug/mL) was found to be 40.5 fold; the CD69, fold-change of MFI over no stimulation, Med. (2 ug/mL) came out at 129 fold; the GFP, fold-change of MFI over no stimulation, High (10 ug/mL) is 10.1 fold. In experiment [2], the GFP, fold-change of MFI over no stimulation, Low (0.4 ug/mL) amounted to 2.4 fold and the GFP, fold-change of MFI over no stimulation, Med. (2 ug/mL) was found to be 11.2 fold.
As for anti-BTLA mAb clone MIH26 (antibody), in [3], the CD69, fold-change of MFI over no stimulation, High (10 ug/mL) was found to be 9.2 fold; the CD69, fold-change of MFI over no stimulation, Low (0.4 ug/mL) was determined as 10.8 fold; the CD69, fold-change of MFI over no stimulation, Med. (2 ug/mL) was determined as 14.1 fold; the GFP, fold-change of MFI over no stimulation, High (10 ug/mL) amounted to 3.5 fold. For the same substance, in [3], the GFP, fold-change of MFI over no stimulation, Low (0.4 ug/mL) came out at 5.1 fold and the GFP, fold-change of MFI over no stimulation, Med. (2 ug/mL) amounted to 6.9 fold. Moreover, in [4], the CD69, fold-change of MFI over no stimulation, High (10 ug/mL) came to 125 fold; the CD69, fold-change of MFI over no stimulation, Low (0.4 ug/mL) is 62.7 fold; the CD69, fold-change of MFI over no stimulation, Med. (2 ug/mL) amounted to 124 fold; the GFP, fold-change of MFI over no stimulation, High (10 ug/mL) amounted to 13 fold. Moreover, in experiment [4], the GFP, fold-change of MFI over no stimulation, Low (0.4 ug/mL) turned out to be 6.1 fold and the GFP, fold-change of MFI over no stimulation, Med. (2 ug/mL) amounted to 7.5 fold.
On to anti-CD96 mAb clone NK92.39 (antibody), for which, in [5], the CD69, fold-change of MFI over no stimulation, High (10 ug/mL) amounted to 2 fold; the CD69, fold-change of MFI over no stimulation, Low (0.4 ug/mL) amounted to 1.1 fold; the CD69, fold-change of MFI over no stimulation, Med. (2 ug/mL) was found to be 1.1 fold; the GFP, fold-change of MFI over no stimulation, High (10 ug/mL) is 1 fold. In addition, in experiment [5], the GFP, fold-change of MFI over no stimulation, Low (0.4 ug/mL) turned out to be 1 fold and the GFP, fold-change of MFI over no stimulation, Med. (2 ug/mL) stood at 0.8 fold. In [6], the CD69, fold-change of MFI over no stimulation, High (10 ug/mL) amounted to 3.9 fold; the CD69, fold-change of MFI over no stimulation, Low (0.4 ug/mL) was 3.3 fold; the CD69, fold-change of MFI over no stimulation, Med. (2 ug/mL) is 1 fold; the GFP, fold-change of MFI over no stimulation, High (10 ug/mL) came out at 1.2 fold. In experiment [6], the GFP, fold-change of MFI over no stimulation, Low (0.4 ug/mL) is 1 fold and the GFP, fold-change of MFI over no stimulation, Med. (2 ug/mL) was 0.9 fold.
With anti-CD200R mAb clone OX-108 (antibody), in experiment [7], the CD69, fold-change of MFI over no stimulation, High (10 ug/mL) came to 8.7 fold; the CD69, fold-change of MFI over no stimulation, Low (0.4 ug/mL) amounted to 0.9 fold; the CD69, fold-change of MFI over no stimulation, Med. (2 ug/mL) worked out at 1.1 fold; the GFP, fold-change of MFI over no stimulation, High (10 ug/mL) was determined as 5.9 fold. Further, in experiment [7], the GFP, fold-change of MFI over no stimulation, Low (0.4 ug/mL) was found to be 1.1 fold and the GFP, fold-change of MFI over no stimulation, Med. (2 ug/mL) was determined as 0.9 fold. Further, in [8], the CD69, fold-change of MFI over no stimulation, High (10 ug/mL) is 29.2 fold; the CD69, fold-change of MFI over no stimulation, Low (0.4 ug/mL) amounted to 1.3 fold; the CD69, fold-change of MFI over no stimulation, Med. (2 ug/mL) came to 4.9 fold; the GFP, fold-change of MFI over no stimulation, High (10 ug/mL) was 6.8 fold. In experiment [8], the GFP, fold-change of MFI over no stimulation, Low (0.4 ug/mL) was 0.8 fold and the GFP, fold-change of MFI over no stimulation, Med. (2 ug/mL) amounted to 1.4 fold.
With “anti-CTLA-4 mAb clone 1003705 (antibody)”, in [9], the CD69, fold-change of MFI over no stimulation, High (10 ug/mL) is 6.2 fold; the CD69, fold-change of MFI over no stimulation, Low (0.4 ug/mL) amounted to 2.7 fold; the CD69, fold-change of MFI over no stimulation, Med. (2 ug/mL) stood at 4.5 fold; the GFP, fold-change of MFI over no stimulation, High (10 ug/mL) was determined as 5.9 fold. Also, in experiment [9], the GFP, fold-change of MFI over no stimulation, Low (0.4 ug/mL) was 2.6 fold and the GFP, fold-change of MFI over no stimulation, Med. (2 ug/mL) was determined as 4.6 fold. Further, in experiment [10], the CD69, fold-change of MFI over no stimulation, High (10 ug/mL) turned out to be 7.2 fold; the CD69, fold-change of MFI over no stimulation, Low (0.4 ug/mL) amounted to 3.1 fold; the CD69, fold-change of MFI over no stimulation, Med. (2 ug/mL) is 5.6 fold; the GFP, fold-change of MFI over no stimulation, High (10 ug/mL) is 4.3 fold. Moreover, in experiment [10], the GFP, fold-change of MFI over no stimulation, Low (0.4 ug/mL) turned out to be 2.2 fold and the GFP, fold-change of MFI over no stimulation, Med. (2 ug/mL) came to 3.8 fold.
